“Also recorded” adds a separate entry of the source.
Experiments:
dye terminators = experiment: Sequencing reaction utilizing mutant T7 RNA polymerase F644Y/L665P/F667Y (Example 8); type: biochemical; settings: PCR product template, n=4 dye terminators, FIG. 41
3′-dATP = experiment: Inhibition of [α-32P]UTP incorporation by 3′-dATP in transcription reaction (relative activity for 3′-dATP); type: biochemical
[1] = tested on: DNA containing T7 promoter; settings: in vitro, compared with wild type T7 RNA polymerase
Protocol: Subsequent steps for purification of enzyme should be performed at a temperature lower than room temperature, preferably 0-5° C. unless otherwise indicated. The E. coli cells were washed with 10 times relative to the cell weight of a washing buffer (20 mM Tris-HCl, pH 8.1, 130 mM NaCl, 2 mM EDTANa2 at 25° C.), centrifuged again (5,000×g, 4° C., 10 minutes), suspended in 10 times in volume of a sonication buffer [50 mM Tris-HCl, pH 8.1, 100 mM NaCl, 0.1 mM EDTANa2, 5 mM dithiothreitol (DTT), 0.1 mM benzamidine, 30 μg/ml phenylmethylsulfonyl fluoride (PMSF), 10 μg/ml bacitracin], and sonicated by using Sonifier 450 (Branson) at 80W for more than 15 minutes to destroy the cells and reduce the viscosity of the cells. Then, the cell suspension is centrifuged at 12,000×g and 4° C. for ten minutes to remove the cell debris. 10% streptomycin sulfate was slowly added dropwise to the resulting supernatant to a final concentration of 2.0% with stirring, and stirring was further continued for 30 minutes. The supernatant was centrifuged at 12,000×g and 4° C. for ten minutes to remove precipitates, and slowly added with ammonium sulfate powder with stirring to form precipitates. In this case, precipitates were first collected by 30% saturation of ammonium sulfate (30% ammonium sulfate precipitation), and the resulting supernatant was further added with ammonium sulfate to 60% saturation with stirring to form precipitates again (30-60% ammonium sulfate precipitation). The supernatant was added again with ammonium sulfate powder to 90% ammonium sulfate saturation, and stirred at 4° C. for 1 hour, and the precipitates were collected by centrifugation. […] The.30′60% ammonium sulfate fraction was suspended in a small amount of column buffer (20 mM KPO4, pH 7.7, 100 mM NaCl, 1 mM DTT, 30 μg/ml PMSF), and desalted by dialysis against 500 ml of the same buffer for 16hours. The dialysate was applied on a heparin-Sepharose column of 5 ml volume (Pharmacia Biotech). Subsequently, the column was washed with the same buffer until any material absorbing ultraviolet ray at 280 nm disappeared, and eluted with a linear gradient of 0.1 M to 0.64 M NaCl in the same buffer of about 40 times volume of the column volume. The eluent was collected in test tubes as fractions of a suitable volume, and immediately subjected to SDS-acrylamide gel electrophoresis for protein analysis to identify fractions containing proteins around a molecular weight considered to be of the objective T7 RNA polymerase. […] The fractions containing the protein were collected, and desalted by dialysis against about 1 liter of the column buffer (20 mM KPO4, pH 7.7, 100 mM NaCl, 1 mM DTT, 30 μg/ml PMSF) for 16 hours. The fractions desalted by dialysis were applied to a Q-Sepharose column (Pharmacia Biotech) of 5 ml volume that preliminarily equilibrated with the same buffer, and the column was washed with the same buffer until any material absorbing ultraviolet ray at 280 nm disappeared, and eluted with a linear gradient of 0.1 M to 0.64 M NaCl in the same buffer of about 40 times volume of the column volume. The eluent was collected in test tubes as fractions of a suitable volume, and immediately subjected to SDS-acrylamide gel electrophoresis for protein analysis to identify fractions containing proteins around a molecular weight considered to be of the objective T7 RNA polymerase. […] The fractions containing the protein were collected, dialyzed against 500 ml of storage buffer (50% glycerol, 20 mM KPO4, pH 7.7, 100 mM NaCl, 1 mM DTT, 30 μg/ml PMSF) for 16 hours, and stored at −20° C. until use. In vitro RNA synthesis activity and activity of the contaminated ribonuclease of this sample were examined.

[2] = tested on: 3′-dATP, 3′-dGTP, 3′-dCTP, 3′-dUTP and derivatives thereof
Protocol: The T7 RNA polymerases introduced with mutations were purified, and their abilities of promoter sequence specific RNA synthesis and incorporation of ribonucleoside 5′-triphosphates including ATP, GTP, CTP, UTP and derivatives thereof, as well as 3′-DATP, 3′-dGTP, 3′-dCTP, 3′-dUTP and derivatives thereof were compared with those of wild type T7 RNA polymerase.
For two kinds of reaction mixture (with or without 3′-DATP, final concentration was 100 μM), the reaction was performed at 37° C. for 60 minutes. The whole reaction mixture was spotted on DE81 paper (Whatman), washed three times with phosphate buffer, and dried. The DE81 paper was placed into a scintillation vial, and radioactivity was measured using a scintillation counter (Beckman) for each reaction. Degree of inhibition of the [α-^32P]UTP incorporation was calculated by comparing the values obtained with and without 3′-dATP based on the measured radioactivity.

B1: F644Y/L665P/F667Y: mutant T7 RNA polymerase introduced with F644Y/L665P/F667Y mutations (protein)
chain: MNTINIAKNDFSDIELAAIPFNTLADHYGERLAREQLALEHESYEMGEARFRKMFERQLKAGEVADNAAAKPLITTLLPKMIARINDWFEEVKAKRGKRPTAFQFLQEIKPEAVAYITIKTTLACLTSADNTTVQAVASAIGRAIEDEARFGRIRDLEAKHFKKNVEEQLNKRVGHVYKKAFMQVVEADMLSKGLLGGEAWSSWHKEDSIHVGVRCIEMLIESTGMVSLHRQNAGVVGQDSETIELAPEYAEAIATRAGALAGISPMFQPCVVPPKPWTGITGGGYWANGRRPLALVRTHSKKALMRYEDVYMPEVYKAINIAQNTAWKINKKVLAVANVITKWKHCPVEDIPAIEREELPMKPEDIDMNPEALTAWKRAAAAVYRKDKARKSRRISLEFMLEQANKFANHKAIWFPYNMDWRGRVYAVSMFNPQGNDMTKGLLTLAKGKPIGKEGYYWLKIHGANCAGVDKVPFPERIKFIEENHENIMACAKSPLENTWWAEQDSPFCFLAFCFEYAGVQHHGLSYNCSLPLAFDGSCSGIQHFSAMLRDEVGGRAVNLLPSETVQDIYGIVAKKVNEILQADAINGTDNEVVTVTDENTGEISEKVKLGTKALAGQWLAYGVTRSVTKRSVMTLAYGSKEYGFRQQVLEDTIQPAIDSGKGPMYTQPNQAAGYMAKLIWESVSVTVVAAVEAMNWLKSAAKLLAAEVKDKKTGEILRKRCAVHWVTPDGFPVWQEYKKPIQTRLNLMFLGQFRLQPTINTNKDSEIDAHKQESGIAPNFVHSQDGSHLRKTVVWAHEKYGIESFALIHDSFGTIPADAANLFKAVRETMVDTYESCDVLADFYDQFADQLHESQLDKMPALPAKGNLNLRDILESDFAFA
incorporation rate of dye terminators (electrogram) (dye terminators): improvement of incorporation rate of dye terminators | bias for the 3′-dATP incorporation (3′-dATP; among the mutant enzymes prepared): the least bias | more likely to incorporate 3′-dATP in comparison with the wild type enzyme (3′-dATP; from Table 1): 5.58 times | Relative activity of RNA polymerase for 3′-dATP (3′-dATP; relative value of inhibition degree of [α-32P]UTP incorporation by 100 μM 3′-dATP, wild type normalized to 1.000, 37° C., 60 minutes): 5.580 | RNA synthesis activity [1]: maintained sufficient RNA synthesis activity | bias of incorporation observed in the wild type [2]: markedly reduced | ability for incorporating 3′-dATP, 3′-dGTP, 3′-dCTP, 3′-dUTP and derivatives thereof ([2]; compared with wild type T7 RNA polymerase): marked improvement; also recorded: the highest; also recorded: markedly improved ability

Source: US6365350B1, “Method of DNA sequencing” (The Institute of Physical and Chemical Research, priority 1997, dated 2002)
